Literature values in article PMC9842050.
Where two headings read alike, the source gives them in different places.

Tests used:
GLP-1R (Homo sapiens) [1] = target: GLP-1R (Homo sapiens) (UniProt P43220); assay: radioligand competition binding
GLP-1R (Homo sapiens) [2] = target: GLP-1R (Homo sapiens) (UniProt P43220); assay: radioligand competition binding; remark: listed apart in the source
CXCR4 (Homo sapiens) [3] = target: CXCR4 (Homo sapiens) (UniProt P61073)
CXCR4 (Homo sapiens) [4] = target: CXCR4 (Homo sapiens) (UniProt P61073); remark: listed apart in the source

GLP-1R (Homo sapiens), sequence (P43220 24-463): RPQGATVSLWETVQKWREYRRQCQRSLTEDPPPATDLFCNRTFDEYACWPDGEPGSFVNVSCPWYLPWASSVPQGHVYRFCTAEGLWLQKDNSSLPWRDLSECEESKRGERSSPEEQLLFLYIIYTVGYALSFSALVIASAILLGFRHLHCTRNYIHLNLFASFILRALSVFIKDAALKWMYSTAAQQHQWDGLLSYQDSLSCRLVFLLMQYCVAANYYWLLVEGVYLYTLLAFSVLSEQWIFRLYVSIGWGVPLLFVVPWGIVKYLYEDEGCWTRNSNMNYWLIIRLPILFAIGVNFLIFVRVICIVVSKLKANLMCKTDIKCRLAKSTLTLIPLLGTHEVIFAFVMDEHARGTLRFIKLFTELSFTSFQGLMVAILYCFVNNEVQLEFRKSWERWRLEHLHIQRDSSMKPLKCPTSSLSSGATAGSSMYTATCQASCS
CXCR4 (Homo sapiens), sequence (P61073 whole entry): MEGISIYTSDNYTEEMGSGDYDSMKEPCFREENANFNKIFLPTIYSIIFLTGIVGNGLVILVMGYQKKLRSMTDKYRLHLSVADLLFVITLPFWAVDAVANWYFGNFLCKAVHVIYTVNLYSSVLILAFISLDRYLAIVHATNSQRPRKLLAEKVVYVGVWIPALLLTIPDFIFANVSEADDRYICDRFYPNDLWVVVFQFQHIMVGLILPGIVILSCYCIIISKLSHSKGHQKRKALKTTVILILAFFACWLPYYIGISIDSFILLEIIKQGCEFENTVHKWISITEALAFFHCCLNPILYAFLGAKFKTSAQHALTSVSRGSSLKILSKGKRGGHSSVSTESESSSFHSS
exendin-4, sequence (P26349 48-86): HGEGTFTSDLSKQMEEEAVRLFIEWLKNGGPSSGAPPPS
SDF-1α, sequence (P48061 24-88): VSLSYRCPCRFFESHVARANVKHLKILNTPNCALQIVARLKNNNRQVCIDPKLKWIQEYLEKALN

Substance | Kd (GLP-1R (Homo sapiens) [1]) [nM] | Kd (GLP-1R (Homo sapiens) [2]) [nM] | Kd (CXCR4 (Homo sapiens) [3]) [nM] | Kd (CXCR4 (Homo sapiens) [4]) [nM]
exendin-4 (from UniProt P26349) | 37.8 | 54.3 | – | –
SDF-1α (from UniProt P48061) | – | – | 1.4 | 8.4
